How the values were obtained:
Assay in all cases: purified protein
Settings in all cases: 50 °C, 1100 rpm
[1] = substrate: O=C(O)c1ccc(C(=O)OCCOC(=O)c2ccc(C(=O)OCCOC(=O)c3ccc(C(=O)O)cc3)cc2)cc1
[2] = substrate: O=C(O)c1ccc(C(=O)OCCOC(=O)c2ccc(C(=O)OCCO)cc2)cc1
[3] = substrate: O=C(O)c1ccc(C(=O)OCCO)cc1
[4] = substrate: O=C(OCCO)c1ccc(C(=O)OCCO)cc1

B1: LCCICCG (unidentified prokaryotic organism; D238C/F243I/S283C/Y127G) (protein)
chain: QSNPYQRGPNPTRSALTADGPFSVATYTVSRLSVSGFGGGVIYYPTGTSLTFGGIAMSPGYTADASSLAWLGRRLASHGFVVLVINTNSRFDGPDSRASQLSAALNYLRTSSPSAVRARLDANRLAVAGHSMGGGGTLRIAEQNPSLKAAVPLTPWHTDKTFNTSVPVLIVGAEADTVAPVSQHAIPFYQNLPSTTPKVYVELCNASHIAPNSNNAAISVYTISWMKLWVDNDTRYRQFLCNVNDPALCDFRTNNRHCQ
[1]
  Km: 670 ± 610 µM
  kcat: 331 ± 142 s⁻¹
[2]
  Km: 210 ± 91 µM
  kcat: 9.1 ± 2.71 s⁻¹
[3]
  Km: 920 ± 220 µM
  kcat: 0.058 ± 0.0024 s⁻¹
[4]
  Km: 750 ± 270 µM
  kcat: 8.2 ± 1.22 s⁻¹
